The source of these data is patent US20140271660A1 (Bayer, published 2014).

The assay deals with T1, human antithrombin β complexed with heparin (ATβH) (human, UniProt P01008 33-464, lacks glycosylation at Asn135 (β glyco-isoform); complexed with heparin; biotinylated on surface lysines for panning and ELISA).
T1 construct: mature; heparin is not a protein; also called human ATβH; hATβH
The assay is described as follows: panning and screening of a human antibody library against human ATβ in complex with heparin.

T1 sequence (P01008 33-464, one chain of several): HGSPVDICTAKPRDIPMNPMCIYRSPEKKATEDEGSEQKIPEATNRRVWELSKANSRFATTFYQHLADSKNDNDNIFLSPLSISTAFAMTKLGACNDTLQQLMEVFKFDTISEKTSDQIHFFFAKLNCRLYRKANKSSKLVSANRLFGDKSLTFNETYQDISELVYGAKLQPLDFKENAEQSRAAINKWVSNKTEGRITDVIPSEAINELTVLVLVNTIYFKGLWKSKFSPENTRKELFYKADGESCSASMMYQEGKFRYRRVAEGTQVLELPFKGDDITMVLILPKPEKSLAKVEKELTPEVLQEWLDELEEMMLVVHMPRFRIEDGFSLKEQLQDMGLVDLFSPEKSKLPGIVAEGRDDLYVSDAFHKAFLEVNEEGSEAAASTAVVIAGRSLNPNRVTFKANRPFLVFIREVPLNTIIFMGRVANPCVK
Source text: A four-arm panning strategy was designed to discover Fabs specifically against ATβH from a human Fab library (Dyax Fab310). The library was first depleted with biotinylated heparin/Fondaparinux-bound ATα and biotinylated ATα and then was panned against heparin/Fondaparinux-bound ATβ and biotinylated ATβ on streptavidin beads, respectively. For each round of panning, the heparin-bound ATα (ATαH) was included in the binding buffer as a competitor. To keep hATβ in active conformation (heparin bound form), heparin was added to the wash buffer in all three rounds of panning. After panning, pooled clones were screened for hATβ and hATβH specific binding and counter-screened for hATα by ELISA. These clones were also examined for differential binding to rabbit ATβ over rabbit ATα. […] Positive hits (Fabs) were reformatted into IgG1, expressed in HEK293 cells and purified by protein-A column. These purified IgG1s were extensively tested in AT-depleted human plasma and hemA patient plasma for TGA assay (Thrombin Generation Assay) and dPT (diluted Prothrombin Time) assay to measure the clotting time.

B1: TPP2009 hIgG1 (antibody, V domains shown)
VH: EVQLLESGGGLVQPGGSLRLSCAASGFTFSAYRMGWVRQAPGKGLEWVSRIYSSGGRTRYADSVKGRFTISRDNSKNTLYLQMNSLRAEDTAVYYCAREKASDLSGSFSEALDYWGQGTLVTVSS
VL: AQSVLTQDPAVSVALGQTVRITCQGDSLRSYYASWYQQKPGQAPVLVIYGKNNRPSGIPDRFSGSSSGNTASLTITGAQAEDEADYYCNSRDSSGNHLVFGGGTKLTVLG
Consider B1, for which the binding result was “binds”.
